Test results: paper PMC6499816 (Nature Communications, 2019)
Ends that are not written are not given here.

What was measured:
Conditions in all cases: both partners purified
LC3C = molecular target: T1, LC3C (human, UniProt Q9BXW4 1-126); test: BLI; biotinylated LIR peptide immobilised on streptavidin biosensors (Octet Red 96), ATG8 protein in solution; 25 mM Tris pH 7.5, 150 mM NaCl, 0.5 mM TCEP, 0.1% Tween-20, 1 mg/ml BSA, 25 °C; Kd from response against concentration, Y=Rmax*X/(Kd+X)
T1 construct: LC3C, human, full length; The plasmid has a 3C protease site after GST; source: recombinant, expressed in bacteria from the pAL plasmid (modified pGEX-6P2)

GABARAP = molecular target: T2, GABARAP (human, UniProt O95166 1-117); test: as above
T2 construct: GABARAP, human, full length; The plasmid has a 3C protease site after GST; also called GABARAP WT; source: recombinant, expressed in bacteria from the pAL plasmid (modified pGEX-6P2)

LC3A = molecular target: T3, LC3A (human, UniProt Q9H492 1-121); test: as above
T3 construct: LC3A, human, full length; The plasmid has a 3C protease site after GST; source: recombinant, expressed in bacteria from the pAL plasmid (modified pGEX-6P2)

LC3B (recombinant, BLI) = LC3B (recombinant, BLI) (human, UniProt Q9GZQ8 1-120); test: BLI; biotinylated LIR peptide (50 μg/ml) immobilised on streptavidin biosensor, ATG8 in solution; Octet Red 96; 25 mM Tris pH 7.5, 150 mM NaCl, 0.5 mM TCEP, 0.1% Tween-20, 1 mg/ml BSA; 25 °C; Kd from response against concentration
[1] = molecular target: T4, GABARAP-L2 (recombinant, BLI) (human, UniProt P60520 1-117); test: as above
T4 construct: human GABARAP-L2; source: recombinant; bacterial expression plasmid pAL
T4 sequence (P60520 whole entry): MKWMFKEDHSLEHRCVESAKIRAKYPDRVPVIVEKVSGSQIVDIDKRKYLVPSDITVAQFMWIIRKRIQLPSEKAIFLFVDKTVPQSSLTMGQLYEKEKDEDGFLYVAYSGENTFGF

[2] = molecular target: T5, GABARAP (recombinant, BLI) (human, UniProt O95166 1-117); test: as above
T5 construct: full-length human GABARAP; also called WT GABARAP; source: recombinant; bacterial expression plasmid pAL

[3] = molecular target: GABARAP-L1 (recombinant, BLI) (human, UniProt Q9H0R8 1-117); test: as above
Chain of GABARAP-L1 (recombinant, BLI) (Q9H0R8 whole entry, looked up): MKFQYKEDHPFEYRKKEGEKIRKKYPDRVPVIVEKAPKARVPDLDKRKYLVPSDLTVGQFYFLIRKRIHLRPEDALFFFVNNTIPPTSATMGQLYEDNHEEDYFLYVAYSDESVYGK

With DTDDFVMVPAQFPGDLV (peptide, UniProt O75385 353-369, looked up, not fully specified (N-terminus); also: biotinylated, position not given here, source: synthetic peptide) [ULK1 (aa 353-369) LIR peptide] the Kd (LC3C) was 1.9 µM, the Kd (GABARAP) was 0.116 µM and the Kd (LC3A) was 7.71 µM.

Work on SDNCSGGDDDWTHLSSKEVDPSTG (also: biotin, position not given here) [p62 LIR peptide (biotinylated, BLI)] yielded a Kd (LC3B (recombinant, BLI)) of 4.5 µM and a Kd [1] of 5.2 µM.

GGSSGNTHDDFVMIDFKPAFSKDD (also: biotin, position not given here) [ATG13 LIR peptide (biotinylated, BLI)] showed a Kd [2] of 0.59 µM and a Kd [3] of 0.53 µM.

PDSIDAHTFDFETIPHPNIEQTIH (also: biotin, position not given here) [FIP200 LIR peptide (biotinylated, BLI)] showed a Kd [2] of 5.6 µM and a Kd [3] of 7 µM.
